PMC3045587

T1: hTra2-β RRM (Homo sapiens, UniProt P62995 110-201)
T1 sequence: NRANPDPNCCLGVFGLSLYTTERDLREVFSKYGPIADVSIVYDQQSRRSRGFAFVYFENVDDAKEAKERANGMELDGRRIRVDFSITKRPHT

B1: 14-mer CAA stem-loop RNA (structured_RNA)
RNA: GACUUCAACAAGUC
B2: (GAA)2, GAAGAA (ssRNA)
RNA: GAAGAA
B3: UCAAU (ssRNA)
RNA: UCAAU

Legend:
hTra2-β RRM [1] = target: T1, hTra2-β RRM; test: ITC
hTra2-β RRM [2] = target: T1, hTra2-β RRM; test: NMR titration
hTra2-β RRM [3] = target: T1, hTra2-β RRM; test: ITC; remark: listed apart in the source

Row | Binder | Kd (hTra2-β RRM [1]) [µM] | Kd (hTra2-β RRM [2]) [µM] | Kd (hTra2-β RRM [3]) [µM]
1 | B1 | 3.48 |  | 
2 | B2 | 1.5 |  | 
3 | B3 |  | ~40 | 47.8
